Measured values as given in patent publication US20250121002A1 (NOILE IMMUNE BIOTECH, published 2025).
Residue numbers refer to the chain shown, from its start.

B1: anti-EGFRviiiCAR with VL25VH (SG) type scFv based on the 3C2-1B10 clone, on PRIME EGFRviii CAR-T cells (other)
chain: DVVVTQTPLSLPVSLGDQASISCRSSQSLVHSSGITYLQWYLQKPGQSPKLLIYKVSTRFSGVPDRFSGSGSGTDFTLRISRVEAEELGVYFCSQSTHIPWTFGGGTKLEIKSSADDAKKDAAKKDDAKKDDAKKDGQVTLKESGPGILQPSQTLSLACSFSGFSLSTSGMGVSWIRQPSGKGLEWLAHIYWDDDRRYNPSLKSRLTISRDTSSNQVFLRITSVDTADTATYYCARNYGFDVWGAGTTVTVSS
notes: also called PRIME EGFRviii CAR-T cells based on the 3C2-1B10 clone; not shown: rest of the CAR, produced 'in a manner similar to that based on the 1B10-1A12 clone' (third generation: CD8 transmembran)
B2: third generation anti-EGFRviiiCAR with scFv S#026 VL25VH (SG) of the 1B10-1A12 clone, on PRIME EGFRviii CAR-T cells (other)
chain: DVVMTQTPLSLPVSLEDQASISCRSSQSLVHSSGKTYLQWYLQKPGQSPKLLIYSVSNRFSGVPDRFSGSGSGRDFTLKISRVEAEDLGVYFCSQSTHVPWTFGGGTKLEIKSSADDAKKDAAKKDDAKKDDAKKDGQVTLKESGPGILQPSQTLSLTCSFSGFSLSTSGMGVSWIRQPSGKGLEWLAHIFWDDDKRYNPSLKSRLTISKDTSTNQVFLKITSVDTADTATYYCARNYGFDVWGAGTTVTVSS
notes: also called PRIME EGFRviii CAR-T cells based on the 1B10-1A12 clone; not shown: rest of the third generation CAR: human CD8 transmembrane region and human CD28-4-1BB-CD3zeta intracellular signal trans
B3: anti-EGFRviiiCAR with VL25VH (SG) type scFv based on the 2H9-1B5 clone, on PRIME EGFRviii CAR-T cells (other)
chain: B2 chain with M4V, Q27R, S81N, F161L, F191Y, K196T, S204R
notes: also called PRIME EGFRviii CAR-T cells based on the 2H9-1B5 clone; not shown: rest of the CAR, produced 'in a manner similar to that based on the 1B10-1A12 clone' (third generation: CD8 transmembran)

These binders were tested against T1, recombinant EGFRviii protein (UniProt P00533 25-645) (assay: flow cytometry; CAR-T cells stained with recombinant EGFRviii protein).
T1 construct: EGFRviii is a deletion variant of it; The construct is not described
Excerpt: CytoFLEX S (manufactured by Beckman Coulter, Inc.) was used as the flow cytometer, and FlowJo software (manufactured by Tree Star, Inc.) was used for data analysis.

flow cytometer measurement result (percent of cells stained with recombinant EGFRviii protein) [%] | Binder
1.4 | B1
32.4 | B2
3.6 | B3
